Results taken from patent publication US20230095569A1.
Numbering of substitutions follows the chain as printed.

B1: Ab17 (antibody, V domains shown)
VH: QVQLKESGPGLVAPSQSLSITCTVSGFSLTSYAISWVRQPPGKGLEWLGEIWTGGGTNYNSALKSRLSISKDNSKSQVFLKMNSLQTDDTARYYCGRLSYGNSLDYWGQGTTLTVSS
VL: DIVMTQSPSSLTVTAGEKVTMSCKSSQSLLNSGNQKNYLTWYQQKPGQPPKLLIYWASTRESGVPDRFTGSGSGTDFTLTVSSVQAEDLAVYYCQNNFIYPLTFGPGTKLELK
B2: Ab02 (antibody, V domains shown)
VH: QVQLKESGPGLVAPSQSLSITCTVSGFSLTSYAINWVRQPPGKGLEWLGVIWTGGGTNYNSALKSRLSINKDNSKSQVFLKMNSLQTDDTARYYCARFYDGYYSWFAYWGQGTLVTVSA
VL: DIVMTQSHKFMSTSVGDRVSITCKASQDVGTAVTWYQQKPGQSPKLLIYWASTRHTGVPDRFTGSGSGTDFTLTISNVQSEDLADYFCQQYSSYPFTFGSGTKLEIK
B3: Ab36 (antibody, V domains shown)
VH: EVKLEESGGGLVQPGGSMKLSCVASGFTFSNYWMNWVRQSPEKGLEWVAQIRLKSDNYATHYAESVKGMFTISRDDSKSSVYLQMNNLRAEDTGIYYCTAGGDYWGQGTTLTVSS
VL: DIVMTQSQKFMSTTVGDRVSITCKASQNVGTAVAWYHQKPGQSPKLLIYSASNRYTGVPDRFIGSGSGTDFTLTISNVQSEDLGNYFCQQYINYLLTFGSGTKLEIK
B4: Ab18 (antibody, V domains shown)
VH: QVQLKESGPGLVAPSQSLSITCTVSGFSLTTYGINWVRQPPGKGLEWLGVIWGDGSTNYHSALISRLSISKDNSKSQVFLKLNSLQTDDTATYYCVKSSYYGNAMDYWGQGTSVTVSS
VL: DIVMTQSPSSLTVTAGETVTMSCKSSQSLLNSGNQKNYLTWYQQKPGQPPKLLIYWASTRESGVPDRFTGSGSGTDFTLTISSVQAEDLAVYYCQNVYSYPFTFGSGTKLEI
B5: Ab21 (antibody, V domains shown)
VH: EVMLVESGGGLVKPGGSLKLSCAASGFTFSSYTMSWVRQTPEKRLEWVATIIGGYGNTYYVDSVKGRFTISRDSAKNTLYLQMISLRSEDTALYYCTRLGQTQRNAMDYWGQGTSVTVSS
VL: B4 VL with V3L, T12S, T14S, T18K, T40A, W56G, V97D, S99Y, S106A, I112L
B6: Ab19 (antibody, V domains shown)
VH: EVMLVESGGDLVKPGGSLKLSCAASGFSFSRYTMSWVRQTPEKRLEWVATVSVGSGNTYYLDSVKGRFTISRDNAKNTLFLQMSSLRSEDTALYYCARMGQTQRNAVDYWGQGTSVTVSS
VL: DIVMTQSPSSLSVSAGEKVTMSCKSSQSLFNSGNQKNYLAWYQQKPGQPPKLLIYGASTRESGVPDRFTGSGSGTDFTLTISNVQAEDLAVYLCQNDHSFPLTFGAGTKLEL
B7: Ab22 (antibody, V domains shown)
VH: B5 VH with V61A
VL: B6 VL with V3L, F30L, R67T, N83S, L93Y, H98Y, S99Y, F100Y, L102F
B8: Ab20 (antibody, V domains shown)
VH: B5 VH with A23V, V61S, F68I
VL: B6 VL with V3L, S22N, F30L, N83S, L93Y, H98Y, S99Y, F100Y, L102F
B9: Ab24 (antibody, V domains shown)
VH: EVKLVESGGGLVKPGGSLKLSCAGSGFTFSSYTMSWVRQTPEKRLEWVATITIGVNIYYLDSVKGRFTISRDNAKNTLYLQMNSLRSEDTALYYCTRLGQTQRNAMDYWGQGTSVTVSS
VL: B6 VL with S9T, S22T, Q44E, N83S, L93Y, D97V, S99F, F100Y, L102F
B10: Ab38 (antibody, V domains shown)
VH: QIQLVQSGPELKKPGETVKISCKASGYTFTNYGMSWVKQAPGKGLKWMGWINTYSGVPTYADDFKGRFVFSLEASASTAYLQINNLKNEDAATYFCSRWSGPDPLEDHWGQGTTLTVSS
VL: QIVLTQSPAIMSASPGEKVTMTCTASLSLNYIHWYRQRSGTSPKRWIYDTSKLASGVPSRFSGSGSGTSYSLTISSMEAEDAATYYCQQWSSNPWTFGGGTKLEIK

Each binder was assayed against mouse Claudine18.2 (mouse) (UniProt P56857) (assay: FACS on CHOK1-m18.2 cells).

Row | FACS MFI | Binder
1 | 13300 | B1
2 | 2040 | B2
3 | 21600 | B3
4 | 13500 | B4
5 | 15200 | B5
6 | 13400 | B6
7 | 15500 | B7
8 | 13800 | B8
9 | 12800 | B9
10 | 20400 | B10

The binders below were run against Rhesus monkey Claudine18.2 (Rhesus monkey) (UniProt F6YQY3) (assay: FACS on CHOK1-rh18.2 cells).

Row | FACS MFI | Binder
11 | 6680 | B1
12 | 1400 | B2
13 | 17400 | B3
14 | 7890 | B4
15 | 8240 | B5
16 | 6290 | B6
17 | 7330 | B7
18 | 7050 | B8
19 | 7520 | B9
20 | 15600 | B10

What follows are binders tested against human Claudin18.1 (CLDN18.1) (human) (UniProt P56856) (assay: FACS on CHOK1-18.1 cells).
human Claudin18.1 (CLDN18.1) (human), sequence (P56856 whole entry): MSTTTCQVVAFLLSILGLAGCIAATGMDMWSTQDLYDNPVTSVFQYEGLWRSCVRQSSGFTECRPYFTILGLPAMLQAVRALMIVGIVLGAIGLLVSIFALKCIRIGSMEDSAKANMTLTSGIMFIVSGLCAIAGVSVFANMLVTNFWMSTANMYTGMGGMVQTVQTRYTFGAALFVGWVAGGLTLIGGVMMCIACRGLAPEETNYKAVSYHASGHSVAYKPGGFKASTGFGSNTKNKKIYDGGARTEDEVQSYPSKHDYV

Row | FACS MFI | Binder
21 | 4300 | B3
22 | 4470 | B10
